B1: A60R, Q93D82 (parent)
chain: MSTAIVTNVKHFGGMGSALRLSEAGHTVACHDESFKQKDELEAFAETYPQLKPMSEQEPAELIEAVTSAYGQVDVLVSNDIFAPEFQPIDKYAVEDYRGAVEALQIRPFALVNAVASQMKKRKSGHIIFITSATPFGPWKELSTYTSARAGACTLANALSKELGEYNIPVFAIGPNYLHSEDSPYFYPTEPWKTNPEHVAHVKKVTALQRLGTQKELGELVAFLASGSCDYLTGQVFWLAGGFPMIERWPGMPE

Variants of: B1
Settings: Rhizobium radiobacter; pH 7.7; Thermal; CD; Phosphate 5mM; structure 1PWX; whole UniProt chain shown

Variant | Tm [°C] | change of melting temperature, mutant - wild type (higher = more stable) [°C]
MSTAIVTNVKHFGGMGSALRLSEAGHTVACHDESFKQKDELEAFAETYPQLKPMSEQEPRELIEAVTSAYGQVDVLVSNDIFAPEFQPIDKYAVEDYRGAVEALQIRPFALVNAVASQMKKRKSGHIIFITSATPFGPWKELSTYTSARAGACTLANALSKELGEYNIPVFAIGPNYLHSEDSPYFYPTEPWKTNPEHVAHVKKVTALQRLGTQKELGELVAFLASGSCDYLTGQVFWLAGGFPMIERWPGMPE [A60R] | 66.5 | 1.5
MSTAIVTNVKHFGGMGSALRLSEAGHTVACHDESFKQKDELEAFAETYPQLKPMSEQEPKELIEAVTSAYGQVDVLVSNDIFAPEFQPIDKYAVEDYRGAVEALQIRPFALVNAVASQMKKRKSGHIIFITSATPFGPWKELSTYTSARAGACTLANALSKELGEYNIPVFAIGPNYLHSEDSPYFYPTEPWKTNPEHVAHVKKVTALQRLGTQKELGELVAFLASGSCDYLTGQVFWLAGGFPMIERWPGMPE [A60K] | 61 | -4
MSTAIVTNVKHFGGMGSALRLSEAGHTVACHDESFKQKDELEAFAETYPQLKPMSEQEPLELIEAVTSAYGQVDVLVSNDIFAPEFQPIDKYAVEDYRGAVEALQIRPFALVNAVASQMKKRKSGHIIFITSATPFGPWKELSTYTSARAGACTLANALSKELGEYNIPVFAIGPNYLHSEDSPYFYPTEPWKTNPEHVAHVKKVTALQRLGTQKELGELVAFLASGSCDYLTGQVFWLAGGFPMIERWPGMPE [A60L] | 63 | -2
MSTAIVTNVKHFGGMGSALRLSEAGHTVACHDESFKQKDELEAFAETYPQLKPMSEQEPYELIEAVTSAYGQVDVLVSNDIFAPEFQPIDKYAVEDYRGAVEALQIRPFALVNAVASQMKKRKSGHIIFITSATPFGPWKELSTYTSARAGACTLANALSKELGEYNIPVFAIGPNYLHSEDSPYFYPTEPWKTNPEHVAHVKKVTALQRLGTQKELGELVAFLASGSCDYLTGQVFWLAGGFPMIERWPGMPE [A60Y] | 64.5 | -0.5
MSTAIVTNVKHFGGMGSALRLSEAGHTVACHDESFKQKDELEAFAETYPQLKPMSEQEPAKLIEAVTSAYGQVDVLVSNDIFAPEFQPIDKYAVEDYRGAVEALQIRPFALVNAVASQMKKRKSGHIIFITSATPFGPWKELSTYTSARAGACTLANALSKELGEYNIPVFAIGPNYLHSEDSPYFYPTEPWKTNPEHVAHVKKVTALQRLGTQKELGELVAFLASGSCDYLTGQVFWLAGGFPMIERWPGMPE [E61K] | 68.5 | 3.5
MSTAIVTNVKHFGGMGSALRLSEAGHTVACHDESFKDKDELEAFAETYPQLKPMSEQEPAELIEAVTSAYGQVDVLVSNDIFAPEFQPIDKYAVEDYRGAVEALQIRPFALVNAVASQMKKRKSGHIIFITSATPFGPWKELSTYTSARAGACTLANALSKELGEYNIPVFAIGPNYLHSEDSPYFYPTEPWKTNPEHVAHVKKVTALQRLGTQKELGELVAFLASGSCDYLTGQVFWLAGGFPMIERWPGMPE [Q37D] | 65 | 0
MSTAIVTNVKHFGGMGSALRLSEAGHTVACHDESFKEKDELEAFAETYPQLKPMSEQEPAELIEAVTSAYGQVDVLVSNDIFAPEFQPIDKYAVEDYRGAVEALQIRPFALVNAVASQMKKRKSGHIIFITSATPFGPWKELSTYTSARAGACTLANALSKELGEYNIPVFAIGPNYLHSEDSPYFYPTEPWKTNPEHVAHVKKVTALQRLGTQKELGELVAFLASGSCDYLTGQVFWLAGGFPMIERWPGMPE [Q37E] | 65 | 0
MSTAIVTNVKHFGGMGSALRLSEAGHTVACHDESFKQKDELEAFLETYPQLKPMSEQEPAELIEAVTSAYGQVDVLVSNDIFAPEFQPIDKYAVEDYRGAVEALQIRPFALVNAVASQMKKRKSGHIIFITSATPFGPWKELSTYTSARAGACTLANALSKELGEYNIPVFAIGPNYLHSEDSPYFYPTEPWKTNPEHVAHVKKVTALQRLGTQKELGELVAFLASGSCDYLTGQVFWLAGGFPMIERWPGMPE [A45L] | 64 | -1
MSTAIVTNVKHFGGMGSALRLSEAGHTVACHDESFKQKDELEAFKETYPQLKPMSEQEPAELIEAVTSAYGQVDVLVSNDIFAPEFQPIDKYAVEDYRGAVEALQIRPFALVNAVASQMKKRKSGHIIFITSATPFGPWKELSTYTSARAGACTLANALSKELGEYNIPVFAIGPNYLHSEDSPYFYPTEPWKTNPEHVAHVKKVTALQRLGTQKELGELVAFLASGSCDYLTGQVFWLAGGFPMIERWPGMPE [A45K] | 65.5 | 0.5
MSTAIVTNVKHFGGMGSALRLSEAGHTVACHDESFKQKDELEAFAETFPQLKPMSEQEPAELIEAVTSAYGQVDVLVSNDIFAPEFQPIDKYAVEDYRGAVEALQIRPFALVNAVASQMKKRKSGHIIFITSATPFGPWKELSTYTSARAGACTLANALSKELGEYNIPVFAIGPNYLHSEDSPYFYPTEPWKTNPEHVAHVKKVTALQRLGTQKELGELVAFLASGSCDYLTGQVFWLAGGFPMIERWPGMPE [Y48F] | 65.5 | 0.5
MSTAIVTNVKHFGGMGSALRLSEAGHTVACHDESFKQKDELEAFAETYPQLKPFSEQEPAELIEAVTSAYGQVDVLVSNDIFAPEFQPIDKYAVEDYRGAVEALQIRPFALVNAVASQMKKRKSGHIIFITSATPFGPWKELSTYTSARAGACTLANALSKELGEYNIPVFAIGPNYLHSEDSPYFYPTEPWKTNPEHVAHVKKVTALQRLGTQKELGELVAFLASGSCDYLTGQVFWLAGGFPMIERWPGMPE [M54F] | 63.5 | -1.5
MSTAIVTNVKHFGGMGSALRLSEAGHTVACHDESFKQKDELMAFAETYPQLKPMSEQEPAELIEAVTSAYGQVDVLVSNDIFAPEFQPIDKYAVEDYRGAVEALQIRPFALVNAVASQMKKRKSGHIIFITSATPFGPWKELSTYTSARAGACTLANALSKELGEYNIPVFAIGPNYLHSEDSPYFYPTEPWKTNPEHVAHVKKVTALQRLGTQKELGELVAFLASGSCDYLTGQVFWLAGGFPMIERWPGMPE [E42M] | 66.5 | 1.5
MSTAIVTNVKHFGGMGSALRLSEAGHTVACHDESFKQKDELQAFAETYPQLKPMSEQEPAELIEAVTSAYGQVDVLVSNDIFAPEFQPIDKYAVEDYRGAVEALQIRPFALVNAVASQMKKRKSGHIIFITSATPFGPWKELSTYTSARAGACTLANALSKELGEYNIPVFAIGPNYLHSEDSPYFYPTEPWKTNPEHVAHVKKVTALQRLGTQKELGELVAFLASGSCDYLTGQVFWLAGGFPMIERWPGMPE [E42Q] | 64 | -1
MSTAIVTNVKHFGGMGSALRLSEAGHTVACHDESFKQKDELEAFAETYPQLKPMSEQNPAELIEAVTSAYGQVDVLVSNDIFAPEFQPIDKYAVEDYRGAVEALQIRPFALVNAVASQMKKRKSGHIIFITSATPFGPWKELSTYTSARAGACTLANALSKELGEYNIPVFAIGPNYLHSEDSPYFYPTEPWKTNPEHVAHVKKVTALQRLGTQKELGELVAFLASGSCDYLTGQVFWLAGGFPMIERWPGMPE [E58N] | 65 | 0
MSTAIVTNVKHFGGMGSALRLSEAGHTVACHDESFKQKDELEAFAETYPQLKPMSEQQPAELIEAVTSAYGQVDVLVSNDIFAPEFQPIDKYAVEDYRGAVEALQIRPFALVNAVASQMKKRKSGHIIFITSATPFGPWKELSTYTSARAGACTLANALSKELGEYNIPVFAIGPNYLHSEDSPYFYPTEPWKTNPEHVAHVKKVTALQRLGTQKELGELVAFLASGSCDYLTGQVFWLAGGFPMIERWPGMPE [E58Q] | 67.5 | 2.5
MSTAIVTNVKHFGGMGSALRLSEAGHTVACHDESFKQKDELEAFAEHYPQLKPMSEQEPAELIEAVTSAYGQVDVLVSNDIFAPEFQPIDKYAVEDYRGAVEALQIRPFALVNAVASQMKKRKSGHIIFITSATPFGPWKELSTYTSARAGACTLANALSKELGEYNIPVFAIGPNYLHSEDSPYFYPTEPWKTNPEHVAHVKKVTALQRLGTQKELGELVAFLASGSCDYLTGQVFWLAGGFPMIERWPGMPE [T47H] | 63.5 | -1.5
MSTAIVTNVKHFGGMGSALRLSEAGHTVACHDESFKQKDELEAFAESYPQLKPMSEQEPAELIEAVTSAYGQVDVLVSNDIFAPEFQPIDKYAVEDYRGAVEALQIRPFALVNAVASQMKKRKSGHIIFITSATPFGPWKELSTYTSARAGACTLANALSKELGEYNIPVFAIGPNYLHSEDSPYFYPTEPWKTNPEHVAHVKKVTALQRLGTQKELGELVAFLASGSCDYLTGQVFWLAGGFPMIERWPGMPE [T47S] | 64.5 | -0.5
MSTAIVTNVKHFGGMGSALRLSEAGHTVACHDESFKQKDELEAFAEAYPQLKPMSEQEPAELIEAVTSAYGQVDVLVSNDIFAPEFQPIDKYAVEDYRGAVEALQIRPFALVNAVASQMKKRKSGHIIFITSATPFGPWKELSTYTSARAGACTLANALSKELGEYNIPVFAIGPNYLHSEDSPYFYPTEPWKTNPEHVAHVKKVTALQRLGTQKELGELVAFLASGSCDYLTGQVFWLAGGFPMIERWPGMPE [T47A] | 63 | -2
MSTAIVTNVKHFGGMGSALRLSEAGHTVACHDESFKQKDELEAFAEKYPQLKPMSEQEPAELIEAVTSAYGQVDVLVSNDIFAPEFQPIDKYAVEDYRGAVEALQIRPFALVNAVASQMKKRKSGHIIFITSATPFGPWKELSTYTSARAGACTLANALSKELGEYNIPVFAIGPNYLHSEDSPYFYPTEPWKTNPEHVAHVKKVTALQRLGTQKELGELVAFLASGSCDYLTGQVFWLAGGFPMIERWPGMPE [T47K] | 66 | 1
MSTAIVTNVKHFGGMGSALRLSEAGHTVACHDESFKQKDELEAFAETYPQLKPMPEQEPAELIEAVTSAYGQVDVLVSNDIFAPEFQPIDKYAVEDYRGAVEALQIRPFALVNAVASQMKKRKSGHIIFITSATPFGPWKELSTYTSARAGACTLANALSKELGEYNIPVFAIGPNYLHSEDSPYFYPTEPWKTNPEHVAHVKKVTALQRLGTQKELGELVAFLASGSCDYLTGQVFWLAGGFPMIERWPGMPE [S55P] | 65 | 0
MSTAIVTNVKHFGGMGSALRLSEAGHTVACHDESFKQKKELEAFAETYPQLKPMSEQEPAELIEAVTSAYGQVDVLVSNDIFAPEFQPIDKYAVEDYRGAVEALQIRPFALVNAVASQMKKRKSGHIIFITSATPFGPWKELSTYTSARAGACTLANALSKELGEYNIPVFAIGPNYLHSEDSPYFYPTEPWKTNPEHVAHVKKVTALQRLGTQKELGELVAFLASGSCDYLTGQVFWLAGGFPMIERWPGMPE [D39K] | 66.5 | 1.5
MSTAIVTNVKHFGGMGSALRLSEAGHTVACHDESFKQKEELEAFAETYPQLKPMSEQEPAELIEAVTSAYGQVDVLVSNDIFAPEFQPIDKYAVEDYRGAVEALQIRPFALVNAVASQMKKRKSGHIIFITSATPFGPWKELSTYTSARAGACTLANALSKELGEYNIPVFAIGPNYLHSEDSPYFYPTEPWKTNPEHVAHVKKVTALQRLGTQKELGELVAFLASGSCDYLTGQVFWLAGGFPMIERWPGMPE [D39E] | 65 | 0
MSTAIVTNVKHFGGMGSALRLSEAGHTVACHDESFKQKDELEAFAETYPQLKPMSAQEPAELIEAVTSAYGQVDVLVSNDIFAPEFQPIDKYAVEDYRGAVEALQIRPFALVNAVASQMKKRKSGHIIFITSATPFGPWKELSTYTSARAGACTLANALSKELGEYNIPVFAIGPNYLHSEDSPYFYPTEPWKTNPEHVAHVKKVTALQRLGTQKELGELVAFLASGSCDYLTGQVFWLAGGFPMIERWPGMPE [E56A] | 65 | 0
